# Data reported in US7598354 (NATIONAL RESEARCH COUNCIL OF CANADA, dated 2009).
# B1: Cj0638c, inorganic pyrophosphatase (Ppa) (enzyme)
# chain: MNLSKIKIGDIPNKINAVIEIPYGSNIKYEIDKDSGAIMVDRVMASAIFYPANYGFIANTLADDGDPVDILVLNEYPIQAGAVIPCRLIGVLIMEDESGMDEKLLAVPNSKIDARYDNIKTYTDLPQATLNKIKNFFETYKILEPNKWVKVQDFKDEKAAIEILEKAIKNYK
# B2: Cj0332c, nucleoside diphosphate kinase (Ndk) (enzyme)
# chain: MEKTLSIIKPDAVKKGVIGKILDRFESNGLRIAAMKKVQLSKEQAENFYAVHKERPFFKDLVEFMISGPVVVSILEGEGAVLKNRDLMGATNPKEAKAGTIRADFAESIDANAVHGSDSLENAKIEIEFFFKPNEIC
# B3: Cj0169, superoxide dismutase (Fe; SodB) (enzyme)
# chain: MFELRKLPYDTNAFGDFLSAETFSYHHGKHHNTYVTNLNNLIKDTEFAGKDLVSIIKTSNGGVFNNAAQVYNHDFYFDCIKPSTGCGCGGSCQSIDANLQAALEKEFGSLENFKAEFIKGATGVFGSGWFWLVYNTKNQKLEFVGTSNAATPITEDKVPLLVVDVWEHAYYVDHRNARPAYLEKFYAHINWEFVAKAYEWALKEGMGSVSFYANELHPVK
# Target: T1, soybean agglutinin (SBA)-alkaline phosphatase conjugate (soybean, UniProt P05046 33-285, conjugated to alkaline phosphatase (EY Laboratories))
# T1 construct: Lectin; Alkaline phosphatase part not described; also called GalNAc-specific lectin; SBA lectin
# Assay: Western blot of 2D gel probed with SBA-alkaline phosphatase conjugate
# T1 sequence (P05046 33-285 limits assumed): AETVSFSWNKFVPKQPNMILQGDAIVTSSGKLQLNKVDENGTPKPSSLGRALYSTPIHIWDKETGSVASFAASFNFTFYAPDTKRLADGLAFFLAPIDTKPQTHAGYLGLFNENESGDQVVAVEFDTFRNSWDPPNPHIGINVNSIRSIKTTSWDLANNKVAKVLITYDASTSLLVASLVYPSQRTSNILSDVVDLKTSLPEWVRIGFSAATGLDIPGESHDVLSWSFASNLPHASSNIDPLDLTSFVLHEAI
row,Binder,binding result
1,B1,no binding (tested: 10 µg/mL)
2,B2,no binding (tested: 10 µg/mL)
3,B3,no binding (tested: 10 µg/mL)
